According to paper PMC6211538:

Columns and labels:
[1] = target: AMPA receptor GluA2 from rat with deletion of the disordered intracellular C-terminal domain (GluA2cryst) (rat) (UniProt P19491); assay: small-angle neutron scattering (SANS), molecular weight by Fischer analysis; with 1 mM GYKI-53655; 0.31 mg/ml (0.84 uM) GluA2 in D2O-based buffer with 0.5 mM matched-out deuterated DDM; 10°C; oligomeric state from MW against the construct's 368 kDa
[2] = target: AMPA receptor GluA2 from rat with deletion of the disordered intracellular C-terminal domain (GluA2cryst) (rat) (UniProt P19491); assay: small-angle neutron scattering (SANS), molecular weight by Fischer analysis; with 10 mM AMPA, pH 5.5; 0.17 mg/ml (0.46 uM) GluA2 in D2O-based buffer with 0.5 mM matched-out deuterated DDM; 10°C; oligomeric state from MW against the construct's 368 kDa
[3] = target: AMPA receptor GluA2 from rat with deletion of the disordered intracellular C-terminal domain (GluA2cryst) (rat) (UniProt P19491); assay: small-angle neutron scattering (SANS), molecular weight by Fischer analysis; with 1 mM AMPA, pH 7.5; 0.31 mg/ml (0.84 uM) GluA2 in D2O-based buffer with 0.5 mM matched-out deuterated DDM; 10°C; oligomeric state from MW against the construct's 368 kDa
[4] = target: AMPA receptor GluA2 from rat with deletion of the disordered intracellular C-terminal domain (GluA2cryst) (rat) (UniProt P19491); assay: small-angle neutron scattering (SANS), molecular weight by Fischer analysis; resting state (apo); 0.20 mg/ml (0.54 uM) GluA2 in D2O-based buffer, 20 mM Tris-DCl pH 7.5, 100 mM NaCl, 0.5 mM matched-out deuterated DDM; 10°C; oligomeric state from MW against the construct's 368 kDa

Measured: stoichiometry N

AMPA receptor GluA2 from rat with deletion of the disordered intracellular C-terminal domain (GluA2cryst) (from UniProt P19491 22-883)
4: all assays above
